Legend:
[1] = biological target: Rhodobacter capsulatus porphobilinogen synthase (Rhodobacter capsulatus) (UniProt P42504)
[2] = biological target: Rhodobacter capsulatus porphobilinogen synthase (Rhodobacter capsulatus) (UniProt P42504); assay: SEC; Superose 6 (10 x 300 mm), 0.5 ml/min, 100 mM BTP pH 8.6, 100 uL of a 200 ug/ml solution; column calibrated with standards
[3] = biological target: Rhodobacter capsulatus porphobilinogen synthase (Rhodobacter capsulatus) (UniProt P42504); assay: AUC; sedimentation equilibrium, 4 °C, 10 mM Tris-HCl pH 7.7 with 0.1 mM DTT or 1 mM βME, 12.3 uM in monomer (440 ug/ml), 8,000-14,000 rpm, global fit to a single species model

Rhodobacter capsulatus porphobilinogen synthase (from UniProt P42504 1-332) (enzyme)
specific activity of the enzyme against protein concentration (0.01 to 40 ug/ml; from ~150 at the lowest to ~450 umol h^-1 mg^-1 at the highest) (μmol h^-1 mg^-1) [1]: 450
stoichiometry N [2]: 6
stoichiometry N [3]: 6
